For one series, the target named is T1, RHAU(ΔGly–RSM)-FLAG (Homo sapiens, UniProt Q9H2U1 105-1008).
T1 sequence: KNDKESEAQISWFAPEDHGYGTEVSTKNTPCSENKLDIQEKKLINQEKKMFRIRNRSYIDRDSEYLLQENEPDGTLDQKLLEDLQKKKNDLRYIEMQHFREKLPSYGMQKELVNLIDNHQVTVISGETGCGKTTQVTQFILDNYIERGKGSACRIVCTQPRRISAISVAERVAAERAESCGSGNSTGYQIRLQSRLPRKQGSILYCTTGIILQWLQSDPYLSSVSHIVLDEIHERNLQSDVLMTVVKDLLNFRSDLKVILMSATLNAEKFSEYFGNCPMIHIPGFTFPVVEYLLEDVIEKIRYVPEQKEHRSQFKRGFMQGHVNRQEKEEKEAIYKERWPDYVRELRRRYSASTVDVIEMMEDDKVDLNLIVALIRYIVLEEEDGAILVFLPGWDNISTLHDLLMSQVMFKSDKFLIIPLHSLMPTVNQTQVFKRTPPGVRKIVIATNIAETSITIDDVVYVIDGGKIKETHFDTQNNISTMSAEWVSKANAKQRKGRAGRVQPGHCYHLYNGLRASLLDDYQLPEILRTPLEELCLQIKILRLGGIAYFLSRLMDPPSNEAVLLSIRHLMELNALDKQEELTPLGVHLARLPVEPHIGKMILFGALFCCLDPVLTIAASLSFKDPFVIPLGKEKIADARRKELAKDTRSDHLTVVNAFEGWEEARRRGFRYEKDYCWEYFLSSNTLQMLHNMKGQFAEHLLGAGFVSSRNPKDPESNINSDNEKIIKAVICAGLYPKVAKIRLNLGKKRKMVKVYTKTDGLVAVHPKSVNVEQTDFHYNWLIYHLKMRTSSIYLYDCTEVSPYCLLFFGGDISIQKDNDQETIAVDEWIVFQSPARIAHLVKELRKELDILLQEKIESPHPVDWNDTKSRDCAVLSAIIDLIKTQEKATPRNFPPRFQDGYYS
The series can be described thus: EMSA.

A further series deals with T2, GST-RHAU(WT) (Homo sapiens, UniProt Q9H2U1 1-1008).
T2 sequence: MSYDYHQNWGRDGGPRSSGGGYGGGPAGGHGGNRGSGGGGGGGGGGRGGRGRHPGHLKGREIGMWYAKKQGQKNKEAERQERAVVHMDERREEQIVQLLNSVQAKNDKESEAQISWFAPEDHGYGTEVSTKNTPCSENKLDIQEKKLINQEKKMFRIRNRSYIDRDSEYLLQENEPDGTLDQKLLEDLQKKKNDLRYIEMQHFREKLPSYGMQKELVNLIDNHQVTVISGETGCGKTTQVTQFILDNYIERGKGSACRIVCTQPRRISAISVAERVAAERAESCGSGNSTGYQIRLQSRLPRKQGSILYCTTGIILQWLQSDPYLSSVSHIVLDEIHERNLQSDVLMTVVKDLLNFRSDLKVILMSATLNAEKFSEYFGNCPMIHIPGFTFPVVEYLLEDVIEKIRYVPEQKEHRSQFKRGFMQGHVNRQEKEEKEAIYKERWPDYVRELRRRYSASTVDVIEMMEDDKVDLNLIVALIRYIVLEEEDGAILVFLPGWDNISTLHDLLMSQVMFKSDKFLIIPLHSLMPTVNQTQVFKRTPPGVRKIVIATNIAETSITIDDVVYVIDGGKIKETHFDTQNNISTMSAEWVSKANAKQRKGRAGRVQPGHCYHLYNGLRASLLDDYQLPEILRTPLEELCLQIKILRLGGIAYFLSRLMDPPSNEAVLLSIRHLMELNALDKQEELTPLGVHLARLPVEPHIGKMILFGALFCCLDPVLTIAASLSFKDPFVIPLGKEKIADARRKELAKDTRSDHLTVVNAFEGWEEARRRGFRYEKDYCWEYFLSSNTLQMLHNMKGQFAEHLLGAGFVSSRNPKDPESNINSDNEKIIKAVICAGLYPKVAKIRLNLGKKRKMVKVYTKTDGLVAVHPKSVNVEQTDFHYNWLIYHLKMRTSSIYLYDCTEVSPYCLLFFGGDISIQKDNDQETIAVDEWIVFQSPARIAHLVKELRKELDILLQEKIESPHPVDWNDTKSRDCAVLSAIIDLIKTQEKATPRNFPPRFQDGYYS
In words: EMSA.

This passage reports binding result and Kd results from PMC2952847.

A word on the Kd: it is the free concentration of one partner at which half of the binding sites on the other are occupied at equilibrium, for simple one-to-one binding. Read a low Kd as a tighter complex.

B1: tetramolecular G4-rAGA (structured_RNA)
RNA: AAAAAAAAAAAAAAAGGGGGAAAAAAAAAAAAAAA
As to B1, in the series with RHAU(ΔGly–RSM)-FLAG, the binding result was “no binding”. In the series with GST-RHAU(WT), this molecule had a Kd of 14 nM.
